This note sets out measurements from article PMC2528289.

Usually stoichiometry N stands for a count of units in the complex or per binding partner.

The assay addresses T1, FliI, flagellar ATPase, full-length protein released from GST-FliI by thrombin (S. typhimurium SJW1103), P26465.
T1 chain: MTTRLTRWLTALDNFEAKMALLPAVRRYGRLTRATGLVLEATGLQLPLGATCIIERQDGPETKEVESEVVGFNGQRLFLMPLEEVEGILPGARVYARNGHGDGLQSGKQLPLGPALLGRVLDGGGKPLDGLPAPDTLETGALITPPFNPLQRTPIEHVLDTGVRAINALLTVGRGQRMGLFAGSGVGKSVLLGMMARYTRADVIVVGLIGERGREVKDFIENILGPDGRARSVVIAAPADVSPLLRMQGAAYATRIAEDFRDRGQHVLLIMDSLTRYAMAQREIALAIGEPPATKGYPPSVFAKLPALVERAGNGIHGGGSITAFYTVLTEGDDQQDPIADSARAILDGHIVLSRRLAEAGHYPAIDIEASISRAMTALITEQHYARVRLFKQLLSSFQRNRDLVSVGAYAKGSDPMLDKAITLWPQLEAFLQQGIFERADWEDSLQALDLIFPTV
Kind of assay: negative-stain electron microscopy with single particle analysis. To be noted: remark: other sources report otherwise.

B1: FliI, flagellar ATPase, full-length protein released from GST-FliI by thrombin, P26465 1-456 (enzyme)
chain: T1 chain
Turning to B1, the stoichiometry N was determined as 6.
